Drawing on publication PMC6488122, this text covers Ka for one substance.

In the assay the target is ERα-LBD (ligand binding domain of estrogen receptor α). Briefly: other fluorescence titration; quenching of the endogenous fluorescence of ERα-LBD (0.2 μm, 600 μL) by microaddition of CTX solution; excitation 295 nm, slits 10 nm, 25°C.

In turn, “chlorotoxin (CTX), recombinant, cut from GST-CTX (from UniProt P45639 1-36) (peptide)” registered a Ka of 3e+07 M⁻¹.
